From publication PMC5519978 (2017)
No end group written: not given here.

B1: hBRM-B BRD (human BRM bromodomain, short splice isoform, residues 1379-1399 and 1418-1508) (domain or fragment)
chain: NPPKLTKQMNAIIDTVINYKDSSGRQLSEVFIQLPSRKELPEYYELIRKPVDFKKIKERIRNHKYRSLGDLEKDVMLLCHNAQTFNLEGSQIYEDSIVLQSVFKSARQKIAK
modifications: 15N-labelled

How the values were obtained:
[1] = target: B1; assay: NMR
[2] = target: T1, BRG1 AT-BRD (AT-hook and bromodomain of human BRG1, residues 1434-1569), wild type (human, UniProt P51532 1434-1569); assay: NMR
T1 chain: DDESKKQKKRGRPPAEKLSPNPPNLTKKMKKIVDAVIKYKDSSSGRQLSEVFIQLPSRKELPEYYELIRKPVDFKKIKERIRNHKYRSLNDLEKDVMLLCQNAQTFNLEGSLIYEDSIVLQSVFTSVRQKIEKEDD

[3] = target: T2, hBRM-A AT-BRD (AT-hook and bromodomain of human BRM, long isoform, residues 1358-1508) (human, UniProt P51531 1358-1508, 15N-labelled); assay: NMR
T2 chain: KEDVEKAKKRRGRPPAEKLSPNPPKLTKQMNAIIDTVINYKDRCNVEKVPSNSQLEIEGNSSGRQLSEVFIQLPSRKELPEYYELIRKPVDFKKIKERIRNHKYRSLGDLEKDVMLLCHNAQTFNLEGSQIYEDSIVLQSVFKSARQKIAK

[4] = target: T3, hBRM-B AT-BRD (AT-hook and bromodomain of human BRM, short isoform, residues 1358-1399 and 1418-1508) (human, UniProt P51531 1358-1399; P51531 1418-1508, 15N-labelled); assay: NMR
T3 chain: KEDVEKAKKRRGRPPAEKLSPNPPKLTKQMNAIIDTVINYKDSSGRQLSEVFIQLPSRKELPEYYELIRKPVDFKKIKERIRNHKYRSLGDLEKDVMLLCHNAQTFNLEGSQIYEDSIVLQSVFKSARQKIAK

[5] = target: T3, hBRM-B AT-BRD (AT-hook and bromodomain …); assay: NMR; Kd,obs, AT-BRD pre-bound to DNAI
[6] = target: T3, hBRM-B AT-BRD (AT-hook and bromodomain …); assay: NMR; pre-bound to DNAI
[7] = target: T4, hBRM-A BRD (human BRM bromodomain, long splice isoform, residues 1379-1508) (human, UniProt P51531 1379-1508, 15N-labelled); assay: NMR
T4 chain: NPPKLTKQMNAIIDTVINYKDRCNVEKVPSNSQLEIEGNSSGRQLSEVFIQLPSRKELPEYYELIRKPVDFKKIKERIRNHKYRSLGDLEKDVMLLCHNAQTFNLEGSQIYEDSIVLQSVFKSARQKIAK

[8] = target: H3(23-34); assay: NMR

## QTARKSTGGKAPRKQLATK [H3(5-23) histone peptide, unmodified]
[1]
  Kd: > 7000 µM

## KQLATK(Ac)AARKS [H3(18-28)K23ac histone peptide]
[1]
  Kd: 3500 µM

## KAARK(Ac)SAPATGG [H3(23-34)K27ac histone peptide]
[2]
  Kd: > 3000 µM
[3]
  Kd: > 35000 µM
[1]
  Kd: > 7000 µM

## AKRHRK(Ac)VLRDN [H4(15-25)K20ac histone peptide]
[1]
  Kd: 2400 µM

## KSTGGK(Ac)APRKQ [H3(9-19)K14ac histone peptide]
[4]
  Kd: 760 µM
[5]
  Kd: 1120 µM
[6]
  Kd: 1120 µM
[2]
  Kd: 940 µM
[3]
  Kd: 810 µM
[7]
  Kd: 880 µM

## B1
[8]
  Kd: > 16000 µM
